assay: soluble on expression in E. coli; label from the status in PepcDB or PDB records

| Sequence | soluble on expression in E. coli |
| --- | --- |
| MGSDKIHHHHHHMRIAIVHYWLVGMRGGEKVIEALCRMYPQADIFTHVVAPERLSSMLAARHIRTSFIQRLPGSVRHYQKYLPLMPLALEQFDLRDYDLVISSESGPAKGVLTRADTAHVCYCHSPMRYLWDFQQDYLDNASPLMRPFMRIFFHYLRQWDVASSQRVDRFVANSRNVARRITKHWRREATVVHPPVECDLFTQAPDVADLPDDEVADIVRQGGYYLCLGQLVGYKRVDIAIEACRKAGRRLVVVGDGEQRAMLERNAPEGVTFLGWRTQDEIRALYAGCRALLFPGEEDFGIVPVECMASGRPVIAYGKGGALETVLDGETGVLFHEQTATACHDAIMRHERMERDFVPDSLRRHARTFDTSVFERKFRREVEAALHAVRG | not soluble |
| MGSDKIHHHHHHMIDMNLILKKKFQEISEVDDFISKASTETDYFEPSTLSHGIPGIILFLDAYQKVFDINTEQIVHKYIMKLAPYLQSGQYNNSLFGGLSGIAFSMDLASQNGKNYQNILNNIDGHIVNEIENKFDQILQEPLNPLNYDTVSGLAGIGRYLLNRVDENEFNVKALKSILVYFKDIQYSKNSWVVPQESQFLESDKNYFTEGNINLGLAHGVLGPMSLFALCVIKGITIENHQHILKDMYKFIMDEKFCNHERWLQRYDLISERNHFNFIRNGWCYGNTGVMTTLFLIGQALYYYEIIKMSKKVMLQVVNDKDENLISPTICHGLSSQILMLTIMNLNFELNEVSDYITVLINKLISHYKEDYLVNFIDINENKQDVFKSRKVGLLEGELGVYLTLMTLKNTKILNEKNWTNAFLIS | not soluble |
| MGSDKIHHHHHHMNYDDPKKKVGRNIKRLRLKAGIKSQAALAELCGWKSQSRVGNYEAGTRAVSAIDAETLAKVLNVTPAEILYGENNKDDDFVSMPSAQYSSGPYEEEDPFQLFKPKQELQNAEWHAGFELWDGDTPLRDDEVALPFYREVELAAGSGSTFVQENGGCKLRFAKSTLKKSRVEPSNAACVTVSGNSMLPVLRHGTTVGVDTSKKSIIDGEMYAIDHDGMLRVKMLYRTPGGGIRIKSYNNDEFPDEFIPPEKASDIKIIGWVFWWSVLNVWNN | not soluble |
| MYAKANNRTVLSFSEQQIIDCGNFTSPCQENILSHEFIKKNGVVTEADYPYVGKENEKCKYDENKIKLWPTNMLLVGNLPETLLKLFIKEHGPGYFRMKAPPSFFNYKTGIYSPTQEECGKATDARSLTIVGYGIEGGQNYWIVKGSFGT | not soluble |
| MAQALWTRNKSEITDEEYKEFYKHIAHDFNDPLTWSHNRVEGKQEYTSLLYIPSQAPWDMWNRDHKHGLKLYVQRVFIMDDAEQFMPNYLRFVRGLIDSSDLPLNVSREILQDSTVTRNLRNALTKRVLQMLEKLAKDDAEKYQTFWQQFGLVLKEGPAEDFANQEAIAKLLRFASTHTDSSAQTVSLEDYVSRMKEGQEKIYYITADSYAAAKSSPHLELLRKKGIEVLLLSDRIDEWMMNYLTEFDGKPFQSVSKVDESLEKLADGDLGTLVPRGSMAISDPNSSSVDKLAAALEHHHHHH | soluble |
| SVKETENLLQTGISEVRGTLKISAPRDIGKQIISPMVSAFSEQYPDVTPYLYLNDNLSNLAESGLDLVIRYGELADSNLISRRLASSQRVLCASPDYLSKQGVPNCPQDLAAHRCLAMVRSNEELKTWHFKDEESHQSITVTPKRFSDDGEVIRQWALDGAGIALKSILDIQQDLKQQRLVTVLDGYMKNFSAFSQGAEADLHVIYQSRQYQPKRVRLFLDFLVEQFSALSDTSNQI | not soluble |
| MRVREPAVAGTFYPKDKEELNKLMDLLCGFEPKEKIKPKAILVPHAGYIYSGKTACEVYKRIEIPEKVVLLGPNHTGLGKPISVYSGDAWETPYGVVEIDGELREKILKYPYANPDEYAHLYEHSLEVQLPFLQRYARREFKILPIVVTFVEYEVAKDFGRFLGEVLKEEDALIVISSDMSHYVPAEEARKKDEILISAMERLNTEELYFKAVQYNITMCGVVPAVVGIESAKVLGATKGIVVDYSNSGDTTGDYSQVVAYLGMIFLLEHHHHHH | not soluble |
| MGSDKIHHHHHHMTDAPGPLEPLGSTGGPILDRPAFERLTTTHRRALKLHCYRMMGSLHEADDLVQETFLKAWRGRAQFDGRGSPRGWLYTIATNACLNAIKARSSAHRILEEPARPPSEGRAAAGLAAELSWLEPYPDAELPDLIDGEPGPDARYETSEAVRLAFVAAIQLLPPRQRASLLLCDVLGWSALETAQLLGGSTASVNSALQRARATLGERYPQGRPQQRSQPNPEEGVLLERYISAWQAANLDGFIALLREDATYHMPPWRDWYRGRPAIHGFFKTVWGNFAGYRAVATRANGQPAVAIYARRHQEPEWRAQSLHVIEPAYGAIASLTVYVAPLGPGLFAAFGLPPVWSGPQA | not soluble |
| ACGYSDRVLQLTLGNSTITTQEAANSVVAYGRWPEFIRDDEANPVDQPTEPDVATCRFYTLDTVMWGKESKGWWWKLPDALRDMGLFGQNMYYHYLGRSGYTVHVQCNASKFHQGALGVFAIPEYCLAGDSDKQRYTSYANANPGERGGKFYSQFNKDNAVTSPKREFCPVDYLLGCGVLLGNAFVYPHQIINLRTNNSATIVLPYVNALAIDSMVKHNNWGIAILPLSPLDFAQDSSVEIPITVTIAPMCSEFNGLRNVTAPKFQ | soluble |
| MDVAGEKQQRKGEAIARIEAEKNAYTVAQLADEYFERMIAGRWKHPNIVRSRIEKDIKPAIGSLKVEDVKPRHIDDVLKAVMKRGAPSIANDTLRWLKRMFNYAIKRHIIEYNPAAAFLEHHHHHH | not soluble |
| MGSDKIHHHHHHMDFDMIEEKKDSVIVRNVENFELKDIFDCGQCFRWHRQENGNYIGIAFEKVVEVQKIGEDVVIYNINEEEFKNVWSEYFDLYRDYGEIKKELSRDPLLKKSVDFGEGIRILRQDPFEILLSFIISANNRIPMIKKCINNISEKAGKKLEYKGKIYYAFPTVDKLHEFTEKDFEECTAGFRAKYLKDTVDRIYNGELNLEYIKSLNDNECHEELKKFMGVGPKVADCIMLFSMQKYSAFPVDTWVKKAMMSLYVAPDVSLKKIRDFGREKFGSLSGFAQQYLFYYARENNIQL | not soluble |
| MGSDKIHHHHHHENLYFQGLLPKYNILTEDQVQKIHENTMKILEEIGIEFEYEPALEVFRREGQKVEGKRVYLTREFVESKLKSAPAEFTLHARNPENNVVIGGDNIVFMPGYGAPFIYELDGSRRKTTLQDYENFAKLAGASKNMHLSGGTMAEPQDIPDGVRHLQMLYSSIKNSDKCFMGSAEGKERAEDSVEIAAILFGGKDVIKEKPVLVSLINSLTPLKYDERMLGALMAYAEAGQAVIIASLVMAGSTGPASLAGTLSLQNAEVLAGISLAQSINPGTPVIYGSTSALSDMRSGSLSIGSPECALFISASAQLARFYGVPSRSGGGLNDSKTVDAQAGYESMMTLMAANLTGVNFVLHTAGILQYFMAMSYEKFIMDDEIAGMLLHYMKGYTFDEDGMAFDVIEKVGPGGHFLTQKHTRKNHKREFYTPTLSDRSAYDTWAKEKLETKQRAHARWQQILANYVPPALDPEIDAKLQAFIAQRGKEVGEE | soluble |
| MSEKRLTMKETIRRKALSLGFCAVGFAAADTLNEAMKEYRAMIDEGRHGEMGYLETGLEARANPELLLPGVKSVLSAALPWPAPAKPGAISGYAVIPDYHRVVGELLKELLDFIRSICDHPINGQICVDSSPVLEKEWAEAAGIGRTGKNTLLIVPGYGSRVFLGELLLDLELEPDTPLDWNPCGDCTACLDACPTGALNTPGKLDARRCISYLTIELKRDFTDEEAAMTNGWFYGCDHCLDACPHNANIEATGYPGFEQKKELVNLTPEKALELTHSQFRKRFAGTPALRLGLRRLKRNARAAVANKSQSKS | not soluble |
| MSLKAVSEADIQAALKEGGTITVWAWEPTLKQVATDFEKEHPGVKVDLVNAGTNKDQYTALQNAISAKKGVPDVAQIEYYAMGQYALTKQLTDLKSFGADKLSAQFSPGPWNGVKAGSDGVYALPMDSGPMALFYNKKVFDKYDIKVPTTWAEYLDAARDLHKADPKAYITADNGDAGFATSMLWQAGSRPYTVDGTKVKIDFSDQGAKTFTETWQQLIDEKLLASVPAWTDEWYKGLGDGSIATLATGAWMPANLESGAKSASGDWRVAPMPQWKAGDKVSAENGGSALALPELGKNEALAYAFVEYANAGDGVQTRLKNGAFPATTADLQSTRFQDTAFPYFGGQKANKIFAESAADVPDDWSYLPYQVYANSVFNDTVGKAYVSGTTLAEGLESWQEASVKYDEEQGLPSRRKGIITITTDPNSSSVDKLAAALEHHHHHH | soluble |
| MGSDKIHHHHHHMSLKELLKDRLSEEELKLVRRSFEIIGDVVIIEIPDEIMHHSRDIVEAILKRHKHVKTVLRKVGEVDGVYRVARYEPIYGEKTETVVREHGCRFLVDPTKAYYSVKLSGERERIARLVGEGERVLVMFAGVGPYPIVIAKLARPREVVGVELNPHAVEYFRQNVRLNKVEGVVKVIEGDVEEVVPQLSGQFDRVVMPAPYSAENFIHLLRGKVRRGGFVHYYTFDSQNEEKILPEKVRRKFEDEGLEVEVVKMRRCGNFAPYVNRYVLDLRVL | not soluble |
| MGSDKIHHHHHHMQNPRRICVADPNHRLSQKRFTRNSRDIFICPDCGCIMADVDFDHDQYESGDYYTMQHKTVQSIEEVWGFRWRYILDQILKINGRSSLLDVGAGNGYFVALASREFSFDASGLEISQEEVQFAADVLNIGLIREDLTQHNLDYDVVTCLNVLEHVVDPQLFLSHLVNRVKPGGLLVITTPNPACIHRKVKGLKNWNMIAPPHHINLFTKESLYILLMRYGLIQLDYQTISTYVNFVRGFDTENLLLRRLFFNLLKIFDLGADHFFIVKKPSQC | not soluble |
| MGSDKIHHHHHHAADPVVVPANMEPLTIEGNRFVTLCIMIRTTPWEVSRDVKLHPRDEVDWHTLEGVRALREAFATNNPNGRLTWGFTMNALEDGRKNYREIRDYVVECQKKYGDEVTYFPGYFPAMYLPRERVNREMSEAIEIISKMVGNGYRPQSIMGGFLSADNLRYLAEKENIHVAHAVIWSQHNIDGGGADGSPSYPFYPSTEHFCKPAQGKSDFIDCVNLDGWTMDFICARRSGQTGHGIDGYNSRRGVGPIETYKGWGLDLGHREVMHTEAIHFDKGLELNGFGWVANIWEAQMVHEFGKDLICDAMKMWVTGTKERWPDTHFVTFGEFGELWRKQYKSNDDWNYRFVERGSGLGDSYNNLEIKWFMNKEFRLALLRDWHTKNSPAYVIDFTRYDLQAHEPADPSPEKPAKDWSLINKINQKALRPQDKPVLIDKLEKEDQDLIRKYYPELLK | not soluble |
| MIFFSVALTTLLVGLSNGCFCPPVISPSCGCGGGGYSSYSGGGYGGGYGGGAINGYATFYRDLTPFRQPYYQTASYPQYQQGPAQSLQQMYQLPNPRYIQPQAPRPQYISRPAPRPAPAPYQPPRVQERPYVQPAAPVAELAETRKNTLHDNGYGEEIERTTYTPVVTAAPVYETDAPTIVTQAPAVEEVPDFDETPVKKGEKDEFYYAYYDDKGNKVGDSRSGTTFAPENVIVEEEATVAPAPASIHMDVTTERVEVANENYDDVVEETQVPVRTSLSPSYTPEVVTSSTVLFMEPRVEAKTVAPAAHENTEVVYEDETVEYEDDGHSETSELPSTKKPQSAEFKRTVQDNQILVDAAENTGEGYRRRNAVNGVRIVKRFRHDERKIHSN | not soluble |
| NKDMNFTIRANYTFSQNVIDYFEENKLPYDYLSVTGKPFNILRGYISEGLFASKEEINTSPDQSGFGTIRPGDIKYRDVNGDGIINEDDKVPLSYSNQLPRMMYGFGGDFQWKDLTVSILFKGSAKVDYYRAGLGNDYGWIPFYNGDLGNVIKLANNPKNRWTPAWYSGTTATENPNAEFPRLSYGKNTNNSQLSSFWRRNGSFLRLQEVSLRYSLKHLPWIKSVGLSSVDLEFVANNLFTIDKVKYFDPEQASANGAVYPIPATYAFQVYLRF | not soluble |

Source: the DeepSol protein solubility set
